We go through 12 molecules from US20040229289A1, “Antigen binding peptides (abtides) from peptide libraries” (Cytogen Corporation, priority 1994, published 2004).

For series [1], the system named is biotinylated 7E11-9.5 mimetope peptide. Description: Dot blot: spotted 7E11-C5 abtides probed with biotinylated mimetope peptide. Particulars: 1 μL of 1 mg/mL abtide spotted on nitrocellulose; 0.1 mg/mL mimetope; FIG. 4. Type of series: binding. Here is the method:
(§1) In some cases, these abtides were used in a dot blot experiment. In those cases, 1 μL of a 1 mg/mL solution of the 38-residue abtides was spotted onto nitrocellulose (0.2 μm or 0.45 μm, Schleicher & Schuell, Keene, NH) strips or circles. After drying (about 1/2 hour), the nitrocellulose was blocked for 1 hour in a solution of 1% BSA in PBS. The nitrocellulose was then allowed to incubate in approximately 5 mL of a solution of 0.1 mg/mL of a biotinylated 7E11-9.5 mimetope peptide (biotin-LYANPGMYSRLHSPA). This mimetope peptide was one of those described in Section 6.1.1 above that were synthesized based upon the nine peptides that were identified in the screening of Section 6.1.1 above. After an hour, the nitrocellulose was washed approximately 5 times with a solution of 1% BSA in PBS. A 1:2000 dilution of Extravidin-Alkaline Phosphatase (4,250 units/mL) (Sigma, St. Louis, Mo.) in PBS was then added and allowed to incubate for 1 hour, after which the nitrocellulose was again washed extensively. Finally, a solution of 5-bromo-4-chloro-3-indolyl phosphate (0.15 mg/mL) and nitro blue tetrazolium (0.3 mg/mL) (Sigma, St Louis, Mo.) (BCIP/NBT) was added as an enzyme substrate. Color was allowed to develop […].
(§2) In FIG. 4, the 7E11-C5 abtides known as clone 14, clone 17, clone 15, clone 16, and clone 13 were tested for their ability to bind the biotinylated 7E11-9.5 mimetope peptide. Also tested, as a positive control, was the monoclonal antibody 7E11-C5. 7E11-C5 was spotted onto the region marked 351 in FIG. 4.

The test system of series [2] is human prostate carcinoma LNCaP xenograft tumors. Description: in vivo. More on the design: species or system SCID mice. Particulars: mouse, iv. The procedure:
Male SCID mice (C.B-17/Icr Tac—SCID mice) were purchased from Fox Chase (Philadelphia, Pa.) or. Taconic Farms (Germantown, N.Y.), were housed in sterilized cages with filter bonnets, and were given autoclaved laboratory rodent chow (Purina, St. Louis, Mo.), and filtered tap water ad libitum.
1×10^7 cells of the human prostate tumor line LNCaP (Horoszewicz et al., 1987, Anticancer Res. 7:927-936) were injected subcutaneously (s.c.) into the left rear flank of the mice. The cells were growing in exponential phase before harvesting and had been resuspended in 0.2 mL of sterile saline. Tumors were grown in the mice for 2-3 months before abtides were injected into the mice.
For biodistribution studies, abtides were modified at their amino termini with the chelator diethylene-triamine-pentaacetic acid anhydride (DTPA-A) (Sigma, St. Louis, Mo.). Approximately 2 mg of each abtide was initially dissolved in an appropriate volume of 0.1% acetic acid and then 1 mL of 0.1 M sodium bicarbonate, pH 8.0, was added. Two mg of DTPA-A was suspended in 100 AL of dimethylsulfoxide (DMSO), and 10 μL of the abtide solution added to this DTPA-A suspension. […]
In one experiment, abtide clone 14-DPTA-^111In (see Table 2) was injected intravenously (i.v.) into two groups of mice bearing measurable LNCaP xenografts. […] Thus, the total injected dose of radioactivity was about 120-140×10^6 cpm.
The first group of mice was sacrificed 2 hours after injection of the abtide and tissues were dissected for analysis. […] Dissected tissues were weighed and the amount of ^111In in them was determined by gamma counting. The cpm per gram of each tissue was calculated by dividing the cpm of ^111In found in the tissue by the weight in grams of the tissue. […]
In another experiment, abtide clone 17-DPTA-^111In (see Table 2) was injected intravenously into four SCID mice bearing measurable LNCaP xenografts. […] Thus, the total injected dose of radioactivity was about 100-110×10^6 cpm. […]

For series [3], the target named is T1, mimetope peptide 7E11-9.5 (not fully specified).
T1 peptide: LYANPGMYSRLHSPA
Description: phage panning of TSAR-9 library on plate-bound 7E11-9.5 peptide. Here is the method: Next, the mimetope peptide was used to isolate abtides from a peptide library. Fifty to one hundred microliters of the solution of this peptide was used to coat the wells of a 96-well plate, the wells were blocked with 0.5% BSA in PBS, and the wells were used for screening. An aliquot of the TSAR-9 random phage library (containing approximately 3×10¹⁰ phage particles) was used as in the initial screening, and 4 rounds of screening were performed. After the first two rounds, the phage were amplified. Two more rounds of screening were then performed. By this procedure, phage from the TSAR-9 library that expressed peptides capable of binding to the 7E11-9.5 mimetope peptide were identified and isolated. The peptides containing the binding domains of these phage are abtides and were discovered to mimic the binding specificities of monoclonal antibody 7E11-C5. These abtides are termed “7E11-C5 abtides.”

For series [4], the target named is T2, biotinylated 7E11-9.5 mimetope peptide (not fully specified (N-terminus); printed as Biotin-LYANPGMYSRLHSPA-NH2).
T2 peptide: LYANPGMYSRLHSPA-NH2
Description: dot blot, synthetic abtide spotted on nitrocellulose, biotinylated mimetope in solution. Here is the method:
as §1, with “(biotin-[…]).” for “(biotin-LYANPGMYSRLHSPA).”
as §2

Series [5] addresses T3, PEM peptide (human).
T3 peptide: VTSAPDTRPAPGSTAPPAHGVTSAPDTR
Description: phage panning on PEM peptide, DC43 library, acid eluted. The procedure:
(§3) A peptide comprising this sequence was synthesized and used to isolate abtides from TSAR peptide libraries by methods analogous to those described above. In these experiments, the specific TSAR libraries used were R26, D38 and DC43. See FIGS. 10-12 for description of these libraries. Phage bound to PEM were eluted by either standard acid elution methods, stringent acid elution methods where phage were incubated with the PEM peptide for only 10 minutes prior to washing and elution, or were eluted using excess PEM peptide. Phage from each library were isolated that express peptides capable of binding to PEM.

In series [6] the target is T3, PEM peptide. Description: phage panning on PEM peptide, DC43 library, eluted with excess PEM peptide. The procedure:
as §3

In series [7] the target is T3, PEM peptide. Briefly: phage panning on PEM peptide, D38 library, eluted with excess PEM peptide. Here is the method:
as §3

Where a SMILES comes first, the peptide text is derived from it. Where no end group is shown, it is not given here. The star is where a group is joined. DTPA = O=C(O)CN(CCN(CC(=O)O)CC(=O)O)CCN(CC(=O)O)CC(=O)*

As to “CGRAYCLSGNYNIFGALFPGVSTPYADVGHDDAQSWRR [clone 15]”, in series [1], the “binding of biotinylated 7E11-9.5 mimetope peptide in dot blot” value is recorded as “bound the mimetope”.

In the case of “DLSRNLDFGRFLLYNAYVPGFTPTFISLTAEHLSSPKG [clone 17]”, the “binding of biotinylated 7E11-9.5 mimetope peptide in dot blot” value in series [1] is “bound the mimetope”.

Turning to `CC[C@H](C)[C@H](NC(=O)[C@H](Cc1ccccc1)NC(=O)[C@@H](NC(=O)[C@@H]1CCCN1C(=O)[C@@H](NC(=O)[C@H](Cc1ccccc1)NC(=O)CNC(=O)[C@@H]1CCCN1C(=O)[C@@H](NC(=O)[C@H](Cc1ccc(O)cc1)NC(=O)[C@H](C)NC(=O)[C@H](CC(N)=O)NC(=O)[C@H](Cc1ccc(O)cc1)NC(=O)[C@H](CC(C)C)NC(=O)[C@H](CC(C)C)NC(=O)[C@H](Cc1ccccc1)NC(=O)[C@H](CCCNC(=N)N)NC(=O)CNC(=O)[C@H](Cc1ccccc1)NC(=O)[C@H](CC(=O)O)NC(=O)[C@H](CC(C)C)NC(=O)[C@H](CC(N)=O)NC(=O)[C@H](CCCNC(=N)N)NC(=O)[C@H](CO)NC(=O)[C@H](CC(C)C)NC(=O)[C@H](CC(=O)O)NC(=O)CN(CCN(CCN(CC(=O)O)CC(=O)O)CC(=O)O)CC(=O)O)C(C)C)[C@@H](C)O)[C@@H](C)O)C(=O)N[C@@H](CO)C(=O)N[C@@H](CC(C)C)C(=O)N[C@H](C(=O)N[C@@H](C)C(=O)N[C@@H](CCC(=O)O)C(=O)N[C@@H](Cc1c[nH]cn1)C(=O)N[C@@H](CC(C)C)C(=O)N[C@@H](CO)C(=O)N[C@@H](CO)C(=O)N1CCC[C@H]1C(=O)N[C@@H](CCCCN)C(=O)NCC(N)=O)[C@@H](C)O` [abtide clone 17-DPTA-^111In, metal not drawn] ({DTPA}-DLSRNLDFGRFLLYNAYVPGFTPTFISLTAEHLSSPKG-NH2), the “localization to LNCaP xenograft tumors” value in series [2] is given as “localized to LNCaP xenograft tumors”.

B1: 7E11-C5 abtide clone 17 (peptide)
peptide: DLSRNLDFGRFLLYNAYVPGFTPTFISLTAEHLSSPKG
notes: tested afterwards as synthetic 38-residue peptide
B1: the binding result in series [3] and in series [4] was “binds” each time.

With LPRPFDDASWKLRAVKESPDGCGFGSPLLFPPYSGLPTFSSCD (acid eluted) [MA-21], the binding result with PEM peptide [5] is reported as “binds”.

In the case of NTCWTDLFWHGLPGGDLPRDGCGLPSELTTHPSRERRDASEN [MA-13], the binding result in the series with PEM peptide [6] is given as “binds”.

B2: 7E11-C5 abtide clone 14 (peptide)
peptide: GIINANDPLPFWFMSPYTPGPAPIDINASRALVSNESG
notes: tested afterwards as synthetic 38-residue peptide (dot blot, ELISA, sandwich assay)
As to B2, the binding result in series [3] and in series [4] was “binds” in each case.

As to GSFESARGVTCIGNHSIGAHGCGPLRSYASFNRGSGRRH (acid eluted) [V22], the binding result in the series with PEM peptide [5] is recorded as “binds”.

As for EEKQGGRWSTMMPRPWCHEGGCGFLYYDAMTKPKTPPIMRTAA (acid eluted) [MA-8], the binding result with PEM peptide [5] is recorded as “binds”.

B3: 7E11-C5 abtide clone 15 (peptide)
peptide: CGRAYCLSGNYNIFGALFPGVSTPYADVGHDDAQSWRR
notes: as for B1
For the molecule B3, the binding result in series [3] and in series [4] was “binds” in each case.

Regarding IDWNWLERGQHNRGYLHSFPDAKSQPTRGPRVAPNGND (eluted with excess PEM peptide) [MP-20], the binding result with PEM peptide [7] is listed as “binds”.

For the molecule GRGSDMREHWPWSMPLILDQHANDPSPRAQSHYYSHPF (eluted with excess PEM peptide) [MP-30], the binding result with PEM peptide [7] is on record as “binds”.
